Measured values published in US20090227528A1, “Pulmonary administration of an antithrombotic compound” (priority 2004, published 2009).
Read-outs that look alike come from different tables or passages of the source.

Key:
[1] = Comparative study between intravenous and intratracheal administration of Org 42675 (plasma concentration via anti-Xa activity, amidolytic S2222); type: in vivo, male Wistar rats; conditions: male, Wistar, rat; for AUC(0-inf) / AUC(0-t) / Cmax / bioavailability: 100 nmol/kg; for bioavailability: other: intratracheal, 100 nmol/kg intratracheal vs i.v. (100%), read-out: F (% bioavailabilty)
Method: The test was carried out in male Wistar rats of 300-400 gr. The rats were anaesthetised by inhalation of a mixture of O2/N2O/isoflurane, after which the right jugular vein was cannulated. Translumination of the neck enabled visibility of the vocal cords and an oral needle was inserted when the vocal cords were open after which 100 μl/300 gr body weight of a solution prepared from the pharmaceutical formulation of Example 1, diluted with an aqueous 0.9% sodium chloride solution, containing 300 nmol of Org 42675/ml was instilled at approximately 1 cm before the bifurcation of the trachea. The same solution and dose was also used to perform the i.v. study. After i.v. administration blood was sampled at 1, 6, 15, 30 and 60 minutes and after 2, 4, 7 and 24 hours. After intra-tracheal administration blood was sampled at 0.5-1-2-4-7 and 24 hours after administration. Blood was centrifuged and the plasma was siphoned off and stored at −20° C. until use. The concentration of Org 42675 was measured amidolytically with S2222 (Chromogenix, Chromogenics Ltd, Molndal, Sweden) by determination of the anti-Xa activity based on the method of Teien and Lie in the obtained plasma samples against a calibration curve which was made of the stock solution of 300 nmol/ml itself. (Teien A N, Lie M. Evaluation of an amidolytic heparin assay method increased sensitivity by adding purified antithrombin III. Thromb. Res. 1977, 10: 399-410). The concentration in the samples was expressed in nmol/ml and the kinetic parameters were calculated with the noncompartment model of WinNonlin (see Tables 1 and 2). After intratracheal administration the maximum concentration was already obtained at 0.5 hour after administration which was also the first time point of blood collection.

[2] = in vivo; cited from earlier work
[3] = rabbit, in vivo; cited from earlier work
[4] = inhaled or intranasal, 100 nmol/kg intratracheal, individual rats
[5] = inhaled or intranasal, 100 nmol/kg intratracheal, mean (n=3)
[6] = iv, 100 nmol/kg intravenous, individual rats
[7] = iv, 100 nmol/kg intravenous, mean (n=2)

Compound | Tmax [1, 4] [min] | AUC(0-inf) [1, 4] [µM·h] | AUC(0-t) [1, 4] [µM·h] | Cmax [1, 4] [nM] | AUC(0-inf) [1, 5] [µM·h] | AUC(0-t) [1, 5] [µM·h] | Cmax [1, 5] [nM] | AUC(0-inf) [1, 6] [µM·h] | AUC(0-t) [1, 6] [µM·h] | Cmax [1, 6] [nM] | AUC(0-inf) [1, 7] [µM·h] | AUC(0-t) [1, 7] [µM·h] | Cmax [1, 7] [nM] | bioavailability ([1]; individual rats) [%] | bioavailability ([1]; mean (n=3)) [%] | Absolute bioavailability [2] | bioavailability [3] | pharmacokinetics [3]
COc1cc(C)c(S(=O)(=O)NC(CC(=O)NCCCC(=O)NCCOCCOCCOCCO[C@H]2[C@H](OC)[C@@H](OC)[C@@H](O[C@H]3[C@H](OC)[C@@H](OC)[C@H](O[C@H]4[C@H](OS(=O)(=O)O)[C@@H](OS(=O)(=O)O)[C@@H](O[C@H]5[C@H](OC)[C@@H](OC)[C@H](O[C@H]6[C@H](OC)[C@@H](OS(=O)(=O)O)[C@@H](OC)O[C@@H]6COS(=O)(=O)O)O[C@H]5C(=O)O)O[C@@H]4COS(=O)(=O)O)O[C@@H]3C(=O)O)O[C@@H]2COS(=O)(=O)O)C(=O)NC(Cc2ccc(C(=N)N)cc2)C(=O)N2CCCCC2)c(C)c1C (stereo partly drawn) [Org 42675] | 30 | 5.53 | 5.4 | 640 | 5.07 ± 0.24 | 4.91 | 770 | 8.46 | 8.35 | 3180 | 7.32 ± 1.03 | 7.32 | 2930 | 75.5 | 71 ± 3 | – | – | –
heparin | – | – | – | – | – | – | – | – | – | – | – | – | – | – | – | 35-60% | low | poor
